In patent US7060670B1, “Stereoselective antifibrillogenic peptides and peptidomimetics thereof” (Neurochem (International) Limited, priority 1999, dated 2006):
“Also recorded” adds a separate entry of the source. Non-standard residues stand in square brackets, D forms with d. No end group written: not given here.

What was measured:
Aβ(1–40) = target: T1, Aβ(1–40) (Homo sapiens, UniProt P05067); assay: thioflavin T fluorescence assay for fibrillogenesis of Aβ(1–40); format: biochemical; details: for Order Of Potency of Peptide Inhibitors, Tested at 20 μM / Order Of Potency of Peptide Inhibitors, Tested at 80 μM: rank, 1 = strongest activity, 11 = weakest, Aβ(1–40) 20 μM, by first appearance of fluorescence over 5-90 hours; for Order Of Potency of Peptide Inhibitors, Tested at 20 μM: peptide 20 μM; for Order Of Potency of Peptide Inhibitors, Tested at 80 μM: peptide 80 μM; for inhibition of [L]-Aβ (1–40) assembly/fibrillogenesis compared with the opposite stereoisomer: FIG. 2, all-[L] Aβ (1–40); for concentration required to give an equivalent inhibition: all-[D] versus all-[L] stereoisomer
T1 construct: Aβ (1–40) 95% purity (American Peptide Company); purchased American Peptide Company, Inc 62-0-78
T1 sequence (P05067 672-711 limits assumed): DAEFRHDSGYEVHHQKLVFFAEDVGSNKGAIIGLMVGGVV
Excerpt: The thioflavin T fluorescence assay for fibrillogenesis is based on the principle that the fluorescent dye, thioflavin T, binds specifically to fibrillar, but not to unaggregated Aβ peptide (LeVine III, H., 1993, Protein Science 2:404–410). Upon binding, thioflavin T develops a characteristic fluorescence (Naiki, H., et al., 1996, Lab. Invest. 74: 374–383) which can be easily detected. The dye is believed to interact with the stacked cross-β pleated sheets, the common structural motif of all amyloids (LeVine III, H., 1995, Amyloid: Int. J. Exp. Clin Invest. 2:1.6). Thioflavin T is widely used to assay the effect of compounds on Aβ peptide fibrillogenesis (Bronfman, P. C., et al., 1995, Neuroscience Lett. 218:201–203). In this assay test compounds are incubated with a solution of Aβ(1–40) (20 μM) containing 10 μM thioflavin T, in 0.02M Tris/0.02M acetate/0.15M NaCl/0.005% azide/pH 7.40 at 37° C. in sealed 384 well microplates. Readings (ex 430 nm/em 485 nm) are taken at various time intervals with a microplate fluorescence reader. An increase in fluorescence signifies the appearance of amyloid or intermediates in the production of amyloid. Inhibitors of fibrillogenesis will lead to less fluorescence production. The results illustrated in Table 1 below, are based on the fluorescence production in the presence of test peptides at either 20 μM or 80 μM concentration, at the time intervals of 5, 19, 45, 67, 77 and 90 hours, compared to a control, buffer alone, without added inhibitory peptide. Protocol Aβ peptide: Aβ (1–40) 95% purity (American Peptide Company, Inc, Sunnyvale, Cal. USA, cat. 62-0-78) is disaggregated in trifluoroacetic acid and filtered through a […] filter, (Whatman Anotop 25 plus, 0.02 μm, Catalogue no. 6809 4102) in hexafluoroisopropanol (HFIP). Solutions of Aβ (1–40) at 600 μM in HFIP are stored at −80° C. Assay mixture: The mixture is prepared as two solutions that are combined upon addition to the 384 well microplate (Corning Costar cat. 3705). • i) Solution A consists of test peptides in 0.02M Tris/0.02M acetate/0.15M NaCl/0.01% azide at pH 7.40 or buffer alone (control), • ii) Solution B consists of Aβ(1–40) 40 μM, thioflavin T 20 μM in 0.02M Tris/0.02M acetate/0.15M NaCl at pH 7.40. This solution is prepared by drying the Aβ peptide under nitrogen and then resuspending this in 0.04M Tris base with 15 minutes sonication. An equal volume of 0.04M acetic acid containing 0.3 M NaCl is added and the solution is adjusted to pH 7.40±0.02. A small volume of 5 mM thioflavin T is added to the solution to give a final 20 μM concentration of thioflavin T. • iii) The microplate is loaded with 40 μL of solution A followed by 40 μL of solution B which gives a final 20 μM Aβ(1–40), 10 μM thioflavin T, and either 20 μM, 80 μM or 100 μM test compound in 0.02M Tris/0.02M acetate/0.15M NaCl/0.005% azide, pH 7.40. The plate is sealed and loaded into the microplate fluorescence reader. Fluorescence measurement data analysis: The HTS-7000 Bio Assay Reader, Perkin Elmer, is used to perform kinetic runs of about 5 days. Readings were taken at various time intervals, 5, 19, 45, 67, 77 and 90 hours, with one minute shaking before each reading. Bandpass filters used were: excitation 430 nm, emission […]. Calculations The rank order of efficacy of the peptides is determined by observing which peptides allow the appearance of fluorescence, above the background level, first. For example in the presence of buffer control alone, fluorescence appears earlier than when any of the peptides is present.

[1] = test system: SH-SY5Y human neuroblast cell line; assay: MTT cytoprotection assay, Aβ (1–40) toxicity on SH-SY5Y cells; format: cell-based; details: FIG. 6, 100 μM test peptide, listed as all-[D]-Lys-Lys-Leu-Val-Phe-Phe-Ala
Description: FIG. 6 uses the MTT assay on SH-SY5Y cells.
A SH-SY5Y human neuroblast cell line (American Type Culture Collection, cat. CRL-2266) is cultured according to technical specifications. Monomerized Aβ (1–40) is prepared using trifluoroacetic acid and hexafluoroisopropanol, in the same way already described for the thioflavin T fluorescence assay. Monomerized Aβ at various concentrations in TANA buffer (0.02 M TRIS base pH 7.4, 0.02M acetate, 0.15 M NaCl) is added to 100 μM test peptide and the mixture is incubated for 24 hours at 37° C. with agitation, in order to allow polymerization to occur. Cells are adhered to a 96-well microplate for 2 hours at 37° C. and 5% CO2 before the Aβ-peptide mixture, or buffer alone (control), is added. The microplate is gently agitated and incubated for 20–24 hours at 37° C. and 5% CO2. Cell viability is determined by a MTT-based colorimetric assay. The MTT assay (Boehringer Mannheim, Cell Proliferation Kit 1) is based on the principle that the yellow tetrazolium salt MTT is cleaved in metabolically-active cells to produce purple formazan crystals. The formazan crystals are solubilized and the resulting colored solution is quantified using a scanning multiwell spectrophotometer (ELISA reader, Absorbance A560 nm). Cellular toxicity was calculated as follows: […]

Aβ = Aβ (Homo sapiens, UniProt P05067); assay: Aβ-NBD environmental probe fibrillogenesis assay; format: biochemical
Sequence of Aβ (P05067 672-711 limits assumed): as above

IAPP = target: T2, IAPP (Homo sapiens, UniProt P10997); assay: IAPP fibril formation (thioflavin T assay, circular dichroism, electron microscope); format: biochemical; details: circular dichroism and thioflavin T assay
T2 sequence (P10997 34-70 limits assumed): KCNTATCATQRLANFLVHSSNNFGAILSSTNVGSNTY
Excerpt: Other amyloidogenic peptides such as IAPP, have also been tested.
The full-length IAPP is 37 amino acids and the β-sheet region is the 20–29 sequence. The 20–29 sequence is critical for forming β-sheet and has been previously shown to be a key region in modulating IAPP aggregation and folding.
Hexapeptides spanning the 20–29 region (Ser-Asn-Asn-Phe-Gly-Ala-Ile-Leu-Ser-Ser) of the IAPP protein were synthesized and tested for their ability to prevent fibril formation as determined by circular dichroism and the thioflavin T assay. […] These peptides (Ser-Asn-Asn-Phe-Gly-Ala- and Asn-Asn-Phe-Gly-Ala-Ile) were directed towards the central core of the 20–29 region.

all-[D]-Aβ (1–40) = assay: thioflavin T fluorescence assay for fibril formation by [D]-Aβ (1–40); format: biochemical; details: FIG. 3
[2] = test system: fetal rat primary cortical neurons; assay: propidium iodide assay on primary cortical neurons with Aβ; format: cell-based; details: FIG. 7; compared to Congo red and Aβ alone; 3 days; listed as all-[D]-Lys-Leu-Val-Phe-Phe-Ala
Description: FIG. 7 uses the propidium iodide assay on primary cortical neurons. Briefly, fetal rat primary cortical neurons are isolated and cultured according to Durkin, J. P. et al., J. Neurochem., 66:951–962, 1996. Neurons are plated in a 48 well microplate. 7 days after plating the neuronal culture media is supplemented with B27 (Life Technologies, Data sheet form No. 3755). A mixture of Aβ and test peptide is added to the cortical neurons for 3 days at 37° C. and 5% CO2.
Cell viability is then visually assessed as the proportion of phase-bright cells that exclude propidium iodide, since only dead cells take up propidium iodide.

125I-LBMP1620 = details: peptide synthesized by SPOT technique; cited from earlier work
Aβ40 [3] = target: T3, Aβ40 (Homo sapiens, UniProt P05067); assay: CD spectrum of Aβ40 incubated with peptide (β-sheet content); format: biochemical; details: for β-sheet content of Aβ40 by CD spectrum at time t=0: physiological conditions
T3 construct: when incubated with Aβ40 under physiological conditions
T3 sequence (P05067 672-711 limits assumed): as the sequence (P05067 672-711 limits assumed) above
Excerpt: (§1) It is the understanding of the inventors that this interesting observation will lead to a greater understanding of fibrillogenesis of Aβ40 and Aβ42 peptides and as a result, will provide important information for the design of potent anti-fibrillogenic compounds for Aβ, other amyloidotic peptides such as AA, AL and IAPP for the treatment of diseases such as Alzheimer's, Type II Diabetes and amyloidosis related disorders. The same principle can also be applied to the design of peptide type compounds for the inhibition of binding of various chemokines to the cell surface as well as inhibition of self assembly and cellular adherence of prion proteins.

Aβ40 [4] = target: T3, Aβ40; assay: electron microscopy of peptide/Aβ40 mixture; format: biochemical; details: mixture of peptide and Aβ40
Excerpt: as §1

Substance | Order Of Potency of Peptide Inhibitors, Tested at 20 μM (Aβ(1–40)) | Order Of Potency of Peptide Inhibitors, Tested at 80 μM (Aβ(1–40)) | also measured
AFFVLK [reference compound] | 11 (L) AFFVLK | 11 (L) AFFVLK | –
Lys-Lys-Leu-Val-Phe-Phe-Ala [(D) KKLVFFA] ([dK][dK][dL][dV][dF][dF][dA]) | 2 (D) KKLVFFA | 1 (D) KKLVFFA | inhibition of Aβ (1–40) neurotoxicity (cytoprotection) [1]: potent cytoprotective agents; also recorded: more potent inhibitor; inhibition of [L]-Aβ (1–40) assembly/fibrillogenesis compared with the opposite stereoisomer (Aβ(1–40)): much more potent inhibitors; concentration required to give an equivalent inhibition (Aβ(1–40); listed as all-[D] stereoisomer peptide): 6.1 µM; potency of all-[D] relative to all-[L] stereoisomer peptide (Aβ(1–40); from 400 μM all-[L] versus 6.1 μM all-[D]): about 60 times; potency at lowest concentration tested versus highest concentration of all-[L] peptide (Aβ; all-[D] 25 μM versus all-[L] 800 μM): more potent than the highest concentration of the all-[L] peptide; potency of all-[D] relative to all-[L] stereoisomer peptide (Aβ; estimate from 25 μM all-[D] versus 800 μM all-[L]): at least 30 times
NNFGAI [hexapeptide from the 20–29 β-sheet region of IAPP] | – | – | blocking of IAPP fibril formation (IAPP): capable of blocking the formation of IAPP fibrils
KLVFFA [reference compound] | 8 (L) KLVFFA | 8 (L) KLVFFA | inhibition of all-[D]-Aβ (1–40) assembly compared with the opposite stereoisomer (all-[D]-Aβ (1–40)): more potent inhibitor
Ala-Phe-Phe-Val-Leu-Lys [(D) AFFVLK] ([dA][dF][dF][dV][dL][dK]) | 5 (D) AFFVLK | 1 (D) AFFVLK | –
Lys-Leu-Val-Phe-Phe-Ala [(D) KLVFFA] ([dK][dL][dV][dF][dF][dA]) | 3 (D) KLVFFA | 1 (D) KLVFFA | cytoprotective activity against Aβ [2]: potent cytoprotective agents; also recorded: potent cytoprotective activity; inhibition of [L]-Aβ (1–40) assembly/fibrillogenesis compared with the opposite stereoisomer (Aβ(1–40); listed as all [D]-Lys-Leu-Val-Phe-Phe-Ala): more potent inhibitor; inhibition of [L]-Aβ (1–40) assembly/fibrillogenesis compared with the opposite stereoisomer (Aβ(1–40); listed as all-[D]-Lys-Leu-Val-Phe-Phe-Ala): much more potent inhibitors
Lys-Leu-Val-Phe-Phe [(D) KLVFF] | 9 (D) KLVFF | 10 (D) KLVFF | 125I-LBMP1620 binding (125I-LBMP1620): failed to bind
Lys-Ile-Val-Phe-Phe-Ala ([dK][dI][dV][dF][dF][dA]) [(D) KIVFFA] | 1 (D) KIVFFA | 5 (D) KIVFFA | –
Asp-Asp-Asp (DDD; peptide having antifibrillogenic activity and/or neuroprotection) [tripeptide] | – | – | β-sheet content of Aβ40 by CD spectrum after 24 hours incubation (Aβ40 [3]): no trace of β-sheet conformation; β-sheet content of Aβ40 by CD spectrum at time t=0 (Aβ40 [3]): slight decrease
Lys-Leu-Val-Phe ([dK][dL][dV][dF]) [(D) KLVF] | 6 (D) KLVF | 9 (D) KLVF | –
SNNFGA [hexapeptide from the 20–29 β-sheet region of IAPP] | – | – | blocking of IAPP fibril formation (IAPP): capable of blocking the formation of IAPP fibrils
KVDDQD [hexapeptide] | – | – | β-sheet content of Aβ40 by CD spectrum after 24 hours incubation (Aβ40 [3]): dramatic increase; β-sheet content of Aβ40 by CD spectrum at time t=0 (Aβ40 [3]): increase; fibrils seen by electron microscopy (Aβ40 [4]): failed to show any fibrils; anti-fibrillogenic activity in thioflavin-T based fluorescence assay (Aβ(1–40); in vitro): confirm this finding; anti-fibrillogenic activity in NBD based fluorescence assay (Aβ; in vitro): confirm this finding
Lys-Ala-Val-Phe-Phe-Ala ([dK][dA][dV][dF][dF][dA]) [(D) KAVFFA] | 7 (D) KAVFFA | 6 (D) KAVFFA | –
KKLVFFA [reference compound] | 10 (L) KKLVFFA | 7 (L) KKLVFFA | concentration required to give an equivalent inhibition (Aβ(1–40)): 400 µM
Lys-Phe-Val-Phe-Phe-Ala ([dK][dF][dV][dF][dF][dA]) [(D) KFVFFA] | 4 (D) KFVFFA | 1 (D) KFVFFA | –
